Results reported in US20250249111A1, “ERIBULIN-BASED ANTIBODY-DRUG CONJUGATES AND METHODS OF USE” (priority 2022, published 2025).

Experiments:
Assay type in all cases: in vivo, human
[1] = system: subjects with PROC, endometrial cancer (EC), triple negative breast cancer (TNBC), and non-small cell lung cancer (NSCLC); assay: Dose-response relationship for ILD across tumor types
Description: MORAb-202 was administered to subjects (N=82) with PROC, endometrial cancer (EC), triple negative breast cancer (TNBC), and non-small cell lung cancer (NSCLC) over a body weight (BW)-based dose range of 0.3 to 1.2 mg/kg. All doses were administered at Q3W. A dose-response assessment was carried out to calculate a relationship between dose and ILD rate over this dose range.
Clinical pharmacology assessments were conducted to evaluate the dose relationships between MORAb-202 and objective response rates (ORR) or ILD. The dose-response relationships were calculated using logistic regression analyses.

[2] = system: subjects with PROC and across tumor types (PROC, EC, TNBC, and NSCLC); assay: Exposure-response (E-R) analysis for ILD in subjects with PROC and across all tumor types; details: N=96 in total (48/96); PROC 0.3 to 1.2 mg/kg Q3W and across tumor types 0.9 to 1.2 mg/kg Q3W
Description: An E-R analysis of ILD was conducted with data from subjects with PROC across the dose range of 0.3 to 1.2 mg/kg Q3W as well as subjects across tumor types (PROC, EC, TNBC, and NSCLC) across the dose range of 0.9 to 1.2 mg/kg Q3W (N=96 in total). Forty-eight subjects had ILD identified by expert review for an ILD rate of 50% (48/96) across both subject groups and dose ranges. AUC and age were significant predictors in multivariate analysis with both higher AUC and higher age predicting a higher probability of ILD. Weight, albumin, ECOG-PS (1 vs 0), Study, and tumor type (OC vs other) were not significant predictors. The probability of ILD by AUC was predicted at the median age (60 years) and plotted along with the observed ILD rate for each exposure quartile (as shown in FIG. 2).

[3] = system: subjects with ovarian cancer (OC) and endometrial cancer (EC); assay: Preliminary results from Phase 1/2 trial, BSA-based dosing cohorts
Source text: MORAb-202 will be administered as an intravenous (IV) infusion once every 3 weeks (21-day cycle). Treatment will stop upon intolerable toxicity, disease progression, or subject withdrawal for any reason. The Dose-Confirmation part will evaluate the safety and preliminary efficacy of MORAb-202 at selected dose levels in subjects with OC and EC. There will be approximately 30 subjects in the Dose-Confirmation part in 4 study treatment cohorts. If at any time ≥2 Grade ≥3 ILD/pneumonitis (National Cancer Institute Common Terminology Criteria for Adverse Events [NCI CTCAE v5.0]) events are observed, the sponsor will pause enrollment, pending IDMC review. The initial cohort will enroll 6 subjects at 25 mg/m^2 of MORAb-202. The dosing regimen for this study is body surface area (BSA)-based dosing. The dose levels to be used in this portion of the study have been matched to body weight doses of 0.9 mg/kg and 0.68 mg/kg with BSA doses of 33 mg/m^2 and 25 mg/m^2 respectively. The BSA dose equivalents were confirmed using predictions from a MORAb-202 population PK model (described in Example 1). This revised dosing regimen has been implemented in the Dose-Confirmation part of this study due to the potential to reduce the ILD risk in higher body weight subjects whilst using doses within the therapeutic index of MORAb-202. The dose evaluation part of the study was designed with two sequential cohorts at 25 mg/m^2 and 33 mg/m^2. Enrollment has been completed in the two sequential cohorts. A total of 14 subjects were enrolled and treated with MORAb-202 with 7 subjects in each cohort. Further investigation will continue at 25 mg/m^2 Q3W. […] BSA-based dosing decreased the total amount of drug (mg) compared with BW-based estimated total dose in most subjects. Additional testing is planned for every two weeks and for once per week dosing regimens.

[4] = system: platinum resistant ovarian cancer (PROC); assay: Dose-response and exposure-response (E-R) analysis for ORR in subjects with PROC; details: for ORR (%): PROC
Description: MORAb-202 was administered to subjects (N=58) with platinum resistant ovarian cancer (PROC) over a body weight (BW)-based dose range of 0.3 to 1.2 mg/kg. All doses were administered at Q3W. A dose-response assessment was carried out to calculate a relationship between dose and objective response rate (ORR) over this dose range. Clinical pharmacology assessments were conducted to evaluate the dose relationships between MORAb-202 and objective response rates (ORR) or ILD. The dose-response relationships were calculated using logistic regression analyses. An E-R efficacy (ORR) analysis was conducted with PROC subjects (N=58) across the dose range of 0.3 to 1.2 mg/kg Q3W. […] Exposure (AUC) was the only significant predictor of the probability of an objective response in multivariate analysis (as shown in FIG. 1). Age, weight, non-high grade serous OC (versus high grade serous OC), ECOG-PS (1 vs 0), and expansion (versus dose escalation) were not significant predictors of an objective response (OR). Higher doses above 1.2 mg/kg Q3W would be expected to result in a higher probability of an OR, given linear PK and lack of saturation of OR across the current dose range. Based on the results of the E-R analysis, clinically meaningful efficacy is expected across the dose range of 0.68 to 1.2 mg/kg. However, as described in section 1.2.3, an overlapping AUC dependence to ILD is observed.

[5] = MORAb-202 population pharmacokinetics (PPK) model
Description: Different dosing regimens were simulated to select a dose of MORAb-202 that would minimize ILD rate while maintaining a high ORR. Stochastic simulations were conducted using the MORAb-202 population pharmacokinetics (PPK) model shown in Table 13 to predict AUC and Cmax for different dosing regimens. […] BW and serum albumin were significant covariates on CL (total clearance) and BW on volume of distribution. Five dosing regimens were simulated: 1) flat dose of 63 mg; 2) BW-based dose of 0.9 mg/kg; 3) BW-based dose of 0.9 mg/kg with a maximum total dose cap of 70 mg; 4) adjusted ideal body weight (AIBW)-based dose of 1.0 mg/kg; and 5) BSA-based dose of 33 mg/m^2 (equivalent to BW-based dose of 0.9 mg/kg). All dosing regimens were simulated on a Q3W treatment cycle.

[6] = BW-based dose 0.45 mg/kg Q3W, N = 3
[7] = BW-based dose 1.2 mg/kg Q3W, N = 24
[8] = 25 mg/m^2 Q3W, preliminary, 7 subjects per cohort
[9] = PROC subjects (N=58), 0.3 to 1.2 mg/kg Q3W

Question: With MORAb-202 as the substance, how does the “ILD (%)” value ([1]; BW-based dose 0.3 mg/kg Q3W, N = 3) read?
Answer: Its value is 0 (0) %.

Question: And the “ILD (%)” value [1, 6]?
Answer: The value was 0 (0) %.

Question: What about the “ILD (%)” value ([1]; BW-based dose 0.68 mg/kg Q3W, N = 6) of the same substance?
Answer: Its value is 16.7%.

Question: What about the “ILD (%)” value ([1]; BW-based dose 0.9 mg/kg Q3W, N = 46) of the same substance?
Answer: The value was 37.0%.

Question: And the “ILD (%)” value [1, 7]?
Answer: The value was 58.3%.

Question: What about the “ILD rate (ILD identified by expert review)” value [2] of the same substance?
Answer: Its value is 50%.

Question: What about the “Mean PK profiles compared with those of a 0.68 mg/kg dose” value ([3]; 25 mg/m^2, MORAb-202, total antibody, and released eribulin) of the same substance?
Answer: Its value is “comparable”.

Question: What about the anti-tumor activity [3, 8] of the same substance?
Answer: The anti-tumor activity was “initial anti-tumor activity”.

Question: And the safety [3, 8]?
Answer: The safety was “Acceptable safety”.

Question: And the ORR ([4]; PROC subjects (N=58) across the dose range of 0.3 to 1.2 mg/kg Q3W (23/58))?
Answer: The ORR was 39.7%.

Question: What about the “subjects with a CR (complete response)” value [4, 9] of the same substance?
Answer: The value was 2.

Question: And the “subjects with a PR (partial response)” value [4, 9]?
Answer: Its value is “Twenty-one”.

Question: What about the “ORR (%)” value ([4]; BW-based dose 0.3 mg/kg Q3W, N = 1) of the same substance?
Answer: Its value is 0 (0) %.

Question: What about the “ORR (%)” value [4, 6] of the same substance?
Answer: The value was 0 (0) %.

Question: What about the “ORR (%)” value ([4]; BW-based dose 0.68 mg/kg Q3W, N = 2) of the same substance?
Answer: The value was 50%.

Question: And the “ORR (%)” value ([4]; BW-based dose 0.9 mg/kg Q3W, N = 28, 0.9 mg/kg)?
Answer: Its value is 32.1%.

Question: What about the “ORR (%)” value [4, 7] of the same substance?
Answer: The value was 54.2%.

Question: What about the “dose proportionality of exposures” value ([5]; PPK analysis) of the same substance?
Answer: The value was “dose proportional”.

Question: What about the “Inter-Individual Variabilty R CL-V1” value ([5]; final PPK model) of the same substance?
Answer: Its value is 0.577.

Question: And the “Q, estimate” value ([5]; final PPK model)?
Answer: The value was 0.008039 L/h.

Question: And the “Residual Additive (SD, ug/mL)” value ([5]; final PPK model)?
Answer: Its value is 0.0992 µg/mL.

Question: And the “V1, estimate” value ([5]; final PPK model)?
Answer: The value was 2.482 L.

Question: And the “V2, estimate” value ([5]; final PPK model)?
Answer: Its value is 1.875 L.

Question: And the “CL (total clearance), estimate” value ([5]; final PPK model, 2-compartment, IV infusion)?
Answer: Its value is 0.01595 L/h.

Question: What about the “BW on V1 (exponent), estimate” value ([5]; final PPK model, covariate) of the same substance?
Answer: The value was 0.559.
